Consider 6 molecules from PMC5240567, “New Insights into Cooperative Binding of Homeodomain Transcription Factors PREP1 and PBX1 to DNA”.

For data set [1], the target named is T1, PREP1hd (UniProt P55347).
T1 sequence: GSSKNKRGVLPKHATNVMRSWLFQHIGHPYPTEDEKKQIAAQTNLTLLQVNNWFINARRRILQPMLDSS
Briefly: fluorescence polarization. The following applies: FP and EMSA: 20 mM Na/K phosphate pH 7.2, 150 mM NaCl, 5% glycerol, 1 mM TCEP, room temperature (FP 9 nM DNA, 30 min; EMSA gel run at 4 C in 0.5x TBE); NMR: …. In general terms: Polarisation of emitted light reports the rotation of a fluorescent probe.

The target of data set [2] is T2, PREP1HD (UniProt P55347 240-344).
T2 sequence: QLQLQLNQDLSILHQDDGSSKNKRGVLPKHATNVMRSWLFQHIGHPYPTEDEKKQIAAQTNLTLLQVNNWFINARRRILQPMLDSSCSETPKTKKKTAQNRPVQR
Briefly: fluorescence polarization; FP and EMSA: 20 mM Na/K phosphate pH 7.2, 150 mM NaCl, 5% glycerol, 1 mM TCEP, room temperature (FP 9 nM DNA, 30 min; EMSA gel run at 4 C in 0.5x TBE); NMR: 20. Conditions: protein: recombinant, tags: GST cleaved (pGEX-6P), label: 5' 6-FAM (FP).

The next data set addresses T3, PREP1hd-C (UniProt P55347 257-344).
T3 sequence: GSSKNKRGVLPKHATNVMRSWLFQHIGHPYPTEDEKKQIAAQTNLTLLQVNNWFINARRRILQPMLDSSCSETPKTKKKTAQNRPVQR
The description is as above. Conditions: protein: recombinant; tags: GST cleaved (pGEX-6P); label: 5' 6-FAM (FP); unlabeled in EMSA and NMR. (Mobility shift assays separate free from complexed probe on a gel.)

Data set [3] has as its target T4, PREP1hd (UniProt P55347 257-325).
T4 sequence: T1 sequence
The data set is described as above. The following applies: protein: recombinant, tags: GST cleaved (pGEX-6P), label: 5' 6-FAM (FP).

In another data set the target is T5, PBX1HD (UniProt P40424 227-317).
T5 sequence: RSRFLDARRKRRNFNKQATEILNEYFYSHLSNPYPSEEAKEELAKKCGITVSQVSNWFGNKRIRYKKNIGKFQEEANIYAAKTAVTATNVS
The description is as above. Conditions: protein: recombinant, tags: GST cleaved (pGEX-6P).

The target in another data set is T6, PREP1hd-N (UniProt P55347 240-325).
T6 sequence: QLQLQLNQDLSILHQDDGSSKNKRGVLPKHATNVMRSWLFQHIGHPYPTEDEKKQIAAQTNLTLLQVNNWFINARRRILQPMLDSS
The description is as above. The following applies: protein: recombinant; tags: GST cleaved (pGEX-6P); label: 5' 6-FAM (FP); unlabeled in EMSA and NMR.

Data set [4] has as its target T7, HOXB1HD (UniProt P14653 171-266). The description is as above. The following applies: protein: recombinant, tags: GST cleaved (pGEX-6P), label: 5' 6-FAM (FP).
Data set [5] addresses T7, HOXB1HD. Briefly: EMSA; FP and EMSA: 20 mM Na/K phosphate pH 7.2, 150 mM NaCl, 5% glycerol, 1 mM TCEP, room temperature (FP 9 nM DNA, 30 min; EMSA gel run at 4 C in 0.5x TBE); NMR: 20. Conditions: protein: recombinant; tags: GST cleaved (pGEX-6P); label: 5' 6-FAM (FP); unlabeled in EMSA.
[6] abbreviates: label: 5' 6-FAM (FP), unlabeled in EMSA.

As a reminder, the Kd is a measure of binding affinity in units of concentration.

T7 sequence (P14653 171-266): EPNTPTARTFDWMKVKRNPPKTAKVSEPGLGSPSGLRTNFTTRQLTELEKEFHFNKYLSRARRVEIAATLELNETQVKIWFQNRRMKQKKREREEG

For the molecule “AGGATAACCTGGGATT (double strand) [Control]”, the Kd in the data set with PREP1hd [1] stood at 836 µM.

B1: PMH (dsDNA)
DNA 1: AGTGATTGACAGATTC
DNA 2: GAATCTGTCAATCACT
B1: the Kd with PREP1HD [2] (unlabeled in EMSA and NMR) was 15.4 ± 1 µM; with PREP1hd-C, 15.5 ± 0.6 µM; in the data set with PREP1hd [3] (unlabeled in EMSA and NMR) it was 31.8 ± 1.5 µM; with PBX1HD (label: 5' 6-FAM (FP), unlabeled in EMSA and NMR) it was 0.36 ± 0.1 µM; with PREP1hd-N, 23.7 ± 2.6 µM; with HOXB1HD [4] (unlabeled in EMSA and NMR), 2.7 ± 0.2 µM.

B2: Control* (dsDNA)
DNA 1: CGTCAGCCCTACGGGA
DNA 2: TCCCGTAGGGCTGACG
As for B2, the Kd with PBX1HD (label: 5' 6-FAM) is 2.1 ± 0.1 µM.

B3: PH (dsDNA)
DNA 1: AGAGTGATTGATAAGG
DNA 2: CCTTATCAATCACTCT
Regarding B3, the dissociation constant (Kd) in the data set with PREP1HD [2] (unlabeled in EMSA) was 23.5 ± 2 µM; with PREP1hd [3] (unlabeled in EMSA) it was 51.4 ± 2.5 µM; with PBX1HD (setting [6]), 2.1 ± 0.3 µM; in the data set with HOXB1HD [4] (unlabeled in EMSA), 6.2 ± 0.1 µM.

B4: PH* (dsDNA)
DNA 1: AGAGTGATTGATCGGC
DNA 2: GCCGATCAATCACTCT
For B4, the Kd in the data set with PBX1HD (label: 5' 6-FAM) is 3.3 ± 0.5 µM.

B5: Control (dsDNA)
DNA 1: AGGATAACCTGGGATT
DNA 2: AATCCCAGGTTATCCT
On to B5, for which the binding result with HOXB1HD [5] is on record as “binds”. The Kd stood at 159 ± 5.2 µM with PREP1HD [2] (unlabeled in EMSA) and 2.5 ± 0.4 µM with PBX1HD (setting [6]).
